# Measured values: paper PMC9098913, “In vitro reconstitution of Escherichia coli divisome activation” (Nature Communications, 2022)
# B1: FtsA R286W-His6: FtsA R286W (1-405) with amphipathic helix replaced by C-terminal His-tag (protein)
# chain: MIKATDRKLVVGLEIGTAKVAALVGEVLPDGMVNIIGVGSCPSRGMDKGGVNDLESVVKCVQRAIDQAELMADCQISSVYLALSGKHISCQNEIGMVPISEEEVTQEDVENVVHTAKSVRVRDEHRVLHVIPQEYAIDYQEGIKNPVGLSGVRMQAKVHLITCHNDMAKNIVKAVERCGLKVDQLIFAGLASSYSVLTEDERELGVCVVDIGGGTMDIAVYTGGALRHTKVIPYAGNVVTSDIAYAFGTPPSDAEAIKVRHGCALGSIVGKDESVEVPSVGGRPPWSLQRQTLAEVIEPRYTELLNLVNEEILQLQEKLRQQGVKHHLAAGIVLTGGAAQIEGLAACAQRVFHTQVRIGAPLNITGLTDYAQEPYYSTAVGLLHYGKESHLNGEAEVEKRVTASV
# modifications: Cy3 or Cy5 at the N-terminus in the labelled form (sortagging as for native FtsA); left off: TwinStrep-SUMO, N-terminal, cleaved | 5xGlycine tag, N-terminal, kept | His6, C-terminal, kept
# Key:
# FtsZ [1] = tested on: FtsZ
# How it was run: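 Cy5-labelled His-tagged FtsA variants (0.5–1 µM) tethered to supported membranes via Tris-NTA lipids, with Tris-NTA density set by mixing SUVs; FRET/FRAP used equimolar Cy3/Cy5 FtsA. FtsZ–FtsA co-treadmilling imaged as dual-colour videos at one frame per 2 s; dynamics and colocalization quantified by automated image subtraction analysis.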
# FtsZ [2] = conditions: […] Tris-NTA; p-value 3.86 × 10^−4; three repeats
# How it was run: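 Cy5-labelled His-tagged FtsA (0.5–1 µM) bound to Tris-NTA-containing supported membranes, 20 min, washed; FtsA density set by Tris-NTA fraction. Time-lapse images drift-corrected; colocalization with FtsZ as Pearson's coefficient, FtsZ/FtsA ratio from linear-regression slope of intensity scatterplots.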
# [3] = Membrane off-binding rate (koff) of FtsA from FRAP; set-up: Off binding rate koff: unit not given here; conditions: Fig. S4i, summary value
# How it was run: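 Equimolar Cy3- and Cy5-labelled FtsA plus 20% unlabelled FtsA on membrane; a rectangular ROI is bleached with the 641 nm laser and recovery imaged at one or two frames per second. Diffusion coefficient and off-rate are separated by fitting the shape of the recovery profile, using the change in slope at the bleach borders.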
molecule,measurement,setting,value
B1,"co-treadmilling with FtsZ, reduction compared to the reversibly membrane-binding protein",FtsZ [1]; […] Tris-NTA R286W-His6 vs 0.8 µM R286W,about 50%
same,PCCdiff His-tagged FtsA/FtsZ,"FtsZ [1]; […] Tris-NTA, p-value […] 10^−4 (vs WT-His6), 7.78 × 10^−5 (vs R286W), three repeats",0.36 ± 0.02
same,PCC His-tagged FtsA/FtsZ,FtsZ [2],0.63 ± 0.02
same,Off binding rate koff,"[3]; 0.10 % Tris-NTA lipids, + FtsZ",0.0533
same,Off binding rate koff,"[3]; 0.10 % Tris-NTA lipids, without FtsZ",0.0639
same,Off binding rate koff,"[3]; 0.40 % Tris-NTA lipids, + FtsZ",0.0309
same,Off binding rate koff,"[3]; 0.40 % Tris-NTA lipids, without FtsZ",0.0536
same,Off binding rate koff,"[3]; 0.60 % Tris-NTA lipids, + FtsZ",0.0489
same,Off binding rate koff,"[3]; 0.60 % Tris-NTA lipids, without FtsZ",0.0398
same,Off binding rate koff,"[3]; […] Tris-NTA lipids, + FtsZ",0.0386
same,Off binding rate koff,"[3]; […] Tris-NTA lipids, without FtsZ",0.0644
